Experimental data reported in patent publication US10434147B2, “Treatment type 2 diabetes mellitus patients” (Sanofi-Aventis Deutschland GmbH, priority 2015, dated 2019).

Tested on: Patients with Type 2 Diabetes Insufficiently Controlled with Insulin Glargine with or without Metformin
Assay: Treatment-emergent adverse events, 26-week study
Format: in vivo, human
Source text: FIG. 6—Graphical study design. ^1 Insulin glargine should be injected subcutaneously once daily at dinner or breakfast time (according to patient's/investigators' preference). […] Meal used for insulin glulisine dosing should remain the same throughout the 26-week treatment period. ^4 Injection of insulin glulisine prior to breakfast, lunch and dinner.
Co-primary endpoints at 26 weeks were (1) non-inferiority (95% CI upper bound <0.4%) in HbA1c reduction with LIXI vs GLU-1 and (2) for LIXI vs GLU-3, either non-inferiority in HbA1c reduction (2a) OR superiority (one-sided α≤0.025) in body weight change (2b). FPG, PPG, IG dose, composite outcomes, AEs, and hypoglycemia were assessed.

[1] = Safety population, PT ≥ 3% table

Insulin Glulisine TID: insulin glulisine three times daily, added to insulin glargine ± metformin (comparator arm)
Patients with any TEAE leading to death (Safety population): 2 (0.7%) n (%) | Patients with treatment emergent SAE: Accidental overdose (Safety population): 1 (0.3%) n (%) | Patients with TEAE: Accidental overdose [1]: 20 (6.8%) n (%) | Patients with TEAE: Headache [1]: 12 (4.1%) n (%) | Patients with TEAE: Hypoglycaemia [1]: 154 (52.4%) n (%) | Patients with TEAE: Infections and infestations (SOC) [1]: 81 (27.6%) n (%) | Patients with TEAE: Influenza [1]: 14 (4.8%) n (%) | Patients with TEAE: Injury, poisoning and procedural complications (SOC) [1]: 28 (9.5%) n (%) | Patients with TEAE: Investigations (SOC) [1]: 92 (31.3%) n (%) | Patients with TEAE: Metabolism and nutrition disorders (SOC) [1]: 157 (53.4%) n (%) | Adjudicated by PSAC: Acute on chronic pancreatitis (in vivo): 0 n (%) | Adjudicated by PSAC: Acute pancreatitis (in vivo): 0 n (%) | Adjudicated by PSAC: Chronic pancreatitis (in vivo): 0 n (%) | Adjudicated by PSAC: Unknown pancreatitis (in vivo): 0 n (%) | Gastrointestinal AEs: Diarrhea (in vivo): 4 (1) n (%) | Gastrointestinal AEs: Nausea (in vivo): 3 (1) n (%) | Gastrointestinal AEs: Vomiting (in vivo): 6 (2) n (%) | Patients with TEAE on the specific adverse event form for increased calcitonin (>=20 ng/L): Any (in vivo): 1 (0.3%) n (%) | Patients with TEAE on the specific adverse event form for increased calcitonin (>=20 ng/L): Blood calcitonin increased (in vivo): 1 (0.3%) n (%) | Patients with TEAE: Any class (in vivo): 236 (80.3%) n (%) | Patients with TEAE: Blood glucose decreased (in vivo): 82 (27.9%) n (%) | Patients with TEAE: Diarrhoea (in vivo): 4 (1.4%) n (%) | Patients with TEAE: Gastrointestinal disorders (SOC) (in vivo): 22 (7.5%) n (%) | Patients with TEAE: Nasopharyngitis (in vivo): 18 (6.1%) n (%) | Patients with TEAE: Nausea (in vivo): 3 (1.0%) n (%) | Patients with TEAE: Nervous system disorders (SOC) (in vivo): 29 (9.9%) n (%) | Patients with TEAE: Upper respiratory tract infection (in vivo): 11 (3.7%) n (%) | Patients with TEAE: Vomiting (in vivo): 6 (2.0%) n (%) | Patients with any TEAE (in vivo): 236 (80.3%) n (%) | Patients with any TEAE leading to permanent treatment discontinuation (in vivo): 3 (1.0%) n (%) | Patients with any treatment emergent SAE (in vivo): 14 (4.8%) n (%) | Patients with events adjudicated as allergic reaction by ARAC: All, Any category, Any event (in vivo): 1 (0.3%) n (%) | Patients with events adjudicated as allergic reaction by ARAC: OTHER ALLERGIC REACTION, Rhinitis allergic (in vivo): 1 (0.3%) n (%) | Patients with events adjudicated as allergic reaction by ARAC: Possibly Related to IMP, Any event (in vivo): 0 n (%) | Patients with events adjudicated as allergic reaction by ARAC: URTICARIA (HIVES), Urticaria (in vivo): 0 n (%) | Patients with treatment emergent SAE: Abdominal pain (in vivo): 0 n (%) | Patients with treatment emergent SAE: Angina pectoris (in vivo): 1 (0.3%) n (%) | Patients with treatment emergent SAE: Angina unstable (in vivo): 0 n (%) | Patients with treatment emergent SAE: Ankle fracture (in vivo): 0 n (%) | Patients with treatment emergent SAE: Any class (in vivo): 14 (4.8%) n (%) | Patients with treatment emergent SAE: Atrial fibrillation (in vivo): 0 n (%) | Patients with treatment emergent SAE: Atrioventricular block complete (in vivo): 1 (0.3%) n (%) | Patients with treatment emergent SAE: Basal cell carcinoma (in vivo): 1 (0.3%) n (%) | Patients with treatment emergent SAE: Cardiac disorders (SOC) (in vivo): 5 (1.7%) n (%) | Patients with treatment emergent SAE: Cardiac failure chronic (in vivo): 1 (0.3%) n (%) | Patients with treatment emergent SAE: Cardiac failure congestive (in vivo): 1 (0.3%) n (%) | Patients with treatment emergent SAE: Cellulitis (in vivo): 1 (0.3%) n (%) | Patients with treatment emergent SAE: Cerebrovascular accident (in vivo): 2 (0.7%) n (%) | Patients with treatment emergent SAE: Decreased appetite (in vivo): 0 n (%) | Patients with treatment emergent SAE: Dehydration (in vivo): 0 n (%) | Patients with treatment emergent SAE: Diabetic bullosis (in vivo): 0 n (%) | Patients with treatment emergent SAE: Epigastric discomfort (in vivo): 0 n (%) | Patients with treatment emergent SAE: Erysipelas (in vivo): 0 n (%) | Patients with treatment emergent SAE: Gastric ulcer haemorrhage (in vivo): 0 n (%) | Patients with treatment emergent SAE: Gastrointestinal disorders (SOC) (in vivo): 0 n (%) | Patients with treatment emergent SAE: Hepatic mass (in vivo): 0 n (%) | Patients with treatment emergent SAE: Hepatobiliary disorders (SOC) (in vivo): 0 n (%) | Patients with treatment emergent SAE: Hypertension (in vivo): 1 (0.3%) n (%) | Patients with treatment emergent SAE: Hypoglycaemia (in vivo): 0 n (%) | Patients with treatment emergent SAE: Hypoglycaemic unconsciousness (in vivo): 0 n (%) | Patients with treatment emergent SAE: Incisional hernia (in vivo): 0 n (%) | Patients with treatment emergent SAE: Infections and infestations (SOC) (in vivo): 1 (0.3%) n (%) | Patients with treatment emergent SAE: Injury, poisoning and procedural complications (SOC) (in vivo): 1 (0.3%) n (%) | Patients with treatment emergent SAE: Invasive ductal breast carcinoma (in vivo): 1 (0.3%) n (%) | Patients with treatment emergent SAE: Metabolism and nutrition disorders (SOC) (in vivo): 0 n (%) | Patients with treatment emergent SAE: Myocardial infarction (in vivo): 0 n (%) | Patients with treatment emergent SAE: Myocardial ischaemia (in vivo): 1 (0.3%) n (%) | Patients with treatment emergent SAE: Neoplasm malignant (in vivo): 1 (0.3%) n (%) | Patients with treatment emergent SAE: Neoplasms benign, malignant and unspecified (incl cysts and polyps) (SOC) (in vivo): 3 (1.0%) n (%) | Patients with treatment emergent SAE: Nervous system disorders (SOC) (in vivo): 2 (0.7%) n (%) | Patients with treatment emergent SAE: Neuritis cranial (in vivo): 0 n (%) | Patients with treatment emergent SAE: Pancreatic carcinoma metastatic (in vivo): 0 n (%) | Patients with treatment emergent SAE: Penile infection (in vivo): 0 n (%) | Patients with treatment emergent SAE: Renal and urinary disorders (SOC) (in vivo): 0 n (%) | Patients with treatment emergent SAE: Renal failure (in vivo): 0 n (%) | Patients with treatment emergent SAE: Renal failure acute (in vivo): 0 n (%)
